From paper PMC6321292, “Comparative Transcriptomics Analysis for Gene Mining and Identification of a Cinnamyl Alcohol Dehydrogenase Involved in Methyleugenol Biosynthesis from Asarum sieboldii Miq” (Molecules, 2018) come the findings set out here.

What all share (experiment): purified protein
Common to all, as to assay type: biochemical, Asarum sieboldii
What all share (conditions): 0.5 mM NADPH, 50 mM Tris-HCl pH 7.5, 2 mM DTT, 30 °C

Substrate in series [1]: COc1cc(/C=C/C=O)cc(OC)c1O
Substrate in series [2]: COc1cc(/C=C/C=O)ccc1O
Substrate in series [3]: O=C/C=C/c1ccc(O)cc1

B1: AsCAD5 (Asarum sieboldii) (protein)
chain: MSNQSGTDNCLGWAARDPSGILSPHSFSRRSIGSDDVSLKITHCGVCYADVAWTRNKVGDSMYPLVPGHEIVGIVQEVGSDVNRFKIGDHVGVGTYVNSCRECVYCKDKLEVVCQKGPTLTFNSLDVDGTITKGGYSSHIVVNERYCYRIPDGYPLVSAAPLLCAGITVYAPMMRHKMNQPGKSLGVIGLGGLGHMAVKFGKAFGLNVTVFSTSESKKEEALKLLGADRFVISSDKKQMEGVMKSLDFIIDTASGDHPFDPYMALLKTTGILVLVGFPSEVKFNPGSLILGLRTLSGSVTGGTKDTQEMLEFCAANKIYPEIELINIEYINEALERLINREVKYRFVIDIENSLK
notes: full ORF 1068 bp (about 355 residues), pMAL-C5X MBP fusion in E. coli Rosetta (DE3), MBP tag removed by Factor Xa, ca. 40 kDa
Regarding B1, in “purified protein [1]”, the Km came out at 35.02 ± 8.043 µM, the Vmax worked out at 26.9 µmol/min/mg, the kcat was determined as 291 s⁻¹ and the kcat/Km came out at 8.3e+06 M⁻¹ s⁻¹. In “purified protein [2]”, the Km came out at 27.32 ± 6.186 µM, the Vmax was 20.5 µmol/min/mg, the kcat was determined as 222 s⁻¹ and the kcat/Km is 8.12e+06 M⁻¹ s⁻¹. In addition, in the series “purified protein [3]”, the Km was determined as 45.52 ± 8.888 µM, the Vmax came to 23 µmol/min/mg, the kcat was found to be 249 s⁻¹ and the kcat/Km turned out to be 5.47e+06 M⁻¹ s⁻¹.
